Earlier results as cited in US11147882B2, “Method for preserving and stabilizing proteins for formulations of sanitary, pharmaceutical and cosmetic products” (SANI-RED, S.L., priority 2013, dated 2021).

In the case of “EGF: epidermal growth factor, first polypeptide isolated and characterized as a growth factor; rhEGF is the recombinant human form”, the “half-life of rhEGF at 25° C.” value (25° C., based on the Arrhenius equation (Yang et al. 2005)) is listed as 6.93 h, the “half-life at 37 C” value (37 °C, pH 7.2) is listed as 3.47 h and the “half-life (mean life, useful life) of EGF” value (EGF normally, published studies) is listed as 7 h.
